Target: T1, Cas1-Cas2 complex (native Cas1 + Cas2-His6) (Escherichia coli, UniProt Q46896;P45956 1-305;1-94)
T1 sequence 1: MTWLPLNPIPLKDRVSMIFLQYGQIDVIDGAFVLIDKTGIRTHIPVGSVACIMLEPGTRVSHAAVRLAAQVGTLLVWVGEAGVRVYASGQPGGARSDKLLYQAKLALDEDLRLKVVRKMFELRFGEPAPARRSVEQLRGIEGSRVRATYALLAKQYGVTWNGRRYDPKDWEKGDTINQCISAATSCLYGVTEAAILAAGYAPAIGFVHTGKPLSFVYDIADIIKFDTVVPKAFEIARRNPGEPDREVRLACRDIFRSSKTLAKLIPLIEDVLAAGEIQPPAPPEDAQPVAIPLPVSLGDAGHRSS
T1 sequence 2: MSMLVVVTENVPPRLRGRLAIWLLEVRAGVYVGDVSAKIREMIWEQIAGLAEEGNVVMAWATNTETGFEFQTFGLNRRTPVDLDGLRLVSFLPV
Assay: EMSA

ATTTCAGCTACTCCGATGGCCCATATGCGGATT (ssDNA) [S1 oligonucleotide]: no binding.

ATTTCAGCTACTCCGATGGCCCATATGCGGATC (ssDNA) [S2 oligonucleotide]: no binding.
